# Data taken from article doi:10.1101/2023.12.22.573000.
# T1: RIG-I (recombinant) (human? (GeneID 23586), UniProt O95786 1-925)
# T1 sequence: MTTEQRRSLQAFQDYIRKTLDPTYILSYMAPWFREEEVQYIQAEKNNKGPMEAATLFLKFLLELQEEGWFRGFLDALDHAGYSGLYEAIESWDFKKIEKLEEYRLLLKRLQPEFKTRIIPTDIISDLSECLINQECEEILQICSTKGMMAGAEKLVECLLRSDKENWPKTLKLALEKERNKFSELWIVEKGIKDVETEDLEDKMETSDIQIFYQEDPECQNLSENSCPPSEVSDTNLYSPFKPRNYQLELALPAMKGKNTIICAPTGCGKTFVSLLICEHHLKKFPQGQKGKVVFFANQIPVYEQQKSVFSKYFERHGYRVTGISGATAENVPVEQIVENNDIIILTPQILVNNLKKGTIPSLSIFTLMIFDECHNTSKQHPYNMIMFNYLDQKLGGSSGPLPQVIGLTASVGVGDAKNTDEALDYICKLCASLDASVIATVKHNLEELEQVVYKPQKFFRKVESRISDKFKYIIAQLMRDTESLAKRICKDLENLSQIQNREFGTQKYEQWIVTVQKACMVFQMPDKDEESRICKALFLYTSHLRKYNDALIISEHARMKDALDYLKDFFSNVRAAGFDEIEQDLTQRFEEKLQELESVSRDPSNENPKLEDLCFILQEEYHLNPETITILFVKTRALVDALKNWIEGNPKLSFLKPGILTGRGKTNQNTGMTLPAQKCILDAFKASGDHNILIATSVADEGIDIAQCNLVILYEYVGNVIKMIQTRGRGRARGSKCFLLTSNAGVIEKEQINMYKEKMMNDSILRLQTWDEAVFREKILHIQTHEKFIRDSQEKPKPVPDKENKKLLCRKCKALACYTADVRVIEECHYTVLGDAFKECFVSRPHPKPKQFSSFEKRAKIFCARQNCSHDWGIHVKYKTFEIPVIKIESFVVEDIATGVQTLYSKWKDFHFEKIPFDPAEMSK
# Target: T1, RIG-I (recombinant)
# Experiment: EMSA
binder,measurement,value
"5'-pppG synthetic 24 bp dsRNA (dsRNA, 5'-ppp on sense strand only) RNA 1: GGCAAAAGCAGGGUGACAAAGACA RNA 2: UGUCUUUGUCACCCUGCUUUUGCC",Kd,0.94 nM
